Where no end group is shown, it is not given here.
Assays:
[1] = biological target: T1, BSA (bovine serum albumin) (bovine, UniProt P02769 25-607); assay: protein mix on immobilised LSH205A/E206A resin, SDS-PAGE (FIG. 11B)
T1 construct: Non-glycosylated control protein

[2] = biological target: T2, TNFαR (the TNFα binding part of etanercept) (human, UniProt P20333 23-257, O-glycosylated; pretreated with sialidase mixture in the binding assay); assay: as above
T2 construct: also called TNFaR2; TNFaR
T2 sequence (looked up): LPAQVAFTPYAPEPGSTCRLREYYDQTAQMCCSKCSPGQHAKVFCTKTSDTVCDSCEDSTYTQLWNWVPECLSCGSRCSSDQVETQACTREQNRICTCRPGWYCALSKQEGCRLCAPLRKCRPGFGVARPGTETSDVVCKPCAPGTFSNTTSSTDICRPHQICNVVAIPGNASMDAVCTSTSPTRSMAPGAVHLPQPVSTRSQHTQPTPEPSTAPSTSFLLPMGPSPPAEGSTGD

glycodrosocin (GD) = biological target: T3, glycodrosocin (GD) (not fully specified (residue 11)); assay: peptide mix on immobilised double-mutant resin, LC/MS of load, flow through and eluate (FIG. 19A)
T3 construct: also called glycodrosocin peptide
T3 peptide: GKPRPYSPRPTSHPRPIRV

H2686 = biological target: T4, H2686; assay: as above
T4 construct: Non-glycosylated peptide
T4 peptide: YIYGSFK

H4062 = biological target: T5, H4062; assay: as above
T5 construct: Non-glycosylated peptide
T5 peptide: KKLVFFA

H8390 = biological target: T6, H8390; assay: as above
T6 construct: Non-glycosylated peptide
T6 peptide: FLPLILGKLVKGLL

Measured: binding result

T1 sequence (P02769 25-607 limits assumed): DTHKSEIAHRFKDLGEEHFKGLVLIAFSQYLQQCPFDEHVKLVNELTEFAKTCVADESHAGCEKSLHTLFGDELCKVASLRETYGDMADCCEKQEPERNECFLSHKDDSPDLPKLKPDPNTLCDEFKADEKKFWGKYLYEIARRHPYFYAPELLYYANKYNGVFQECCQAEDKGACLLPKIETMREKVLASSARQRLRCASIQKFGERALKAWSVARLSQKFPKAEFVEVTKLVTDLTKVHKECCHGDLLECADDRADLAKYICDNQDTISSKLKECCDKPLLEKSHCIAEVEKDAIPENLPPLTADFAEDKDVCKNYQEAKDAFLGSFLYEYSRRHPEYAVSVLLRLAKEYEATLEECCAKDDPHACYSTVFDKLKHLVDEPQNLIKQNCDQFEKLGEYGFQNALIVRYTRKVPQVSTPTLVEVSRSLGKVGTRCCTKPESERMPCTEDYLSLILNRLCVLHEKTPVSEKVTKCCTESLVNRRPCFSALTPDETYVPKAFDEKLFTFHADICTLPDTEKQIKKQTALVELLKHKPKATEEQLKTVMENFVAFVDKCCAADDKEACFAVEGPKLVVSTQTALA

B1: LSH205A/E206A (designed binder)
chain: MEVTVPDALKDRIALKKTARQLNIVYFLGSDTEPVPDYERRLSELLLYLQQFYGKEMQRHGYGARSFGLDIKSPGRVNIIEYKAKNPAAHYPYENGGGWKAAQELDEFFKAHPDRKKSQHTLIIMPTWNDEKNGPDNPGGVPFYGMGRNCFALDYPAFDIKHLGQKTREGRLLTKWYGGMAAALGHGLNLPHNHQTASDGKKYGTALMGSGNYTFGTSPTFLTPASCALLDACEVFSVTPSQQFYEGKPEVEVGDVAISFKGDQILVSGNYKSPQTVKALNVYIQDPPYAVNQDYDAVSFSRRLGKKSGKFSMKIDKKELEGLNNNEFRISLMFILANGLHMQKHFTFHWDALQDYRDGSKSGSGHHHHHH
notes: also called LSHE206AA; Amuc1119H205A/E206A
no binding: [1] | H2686 | H4062 | H8390
binds: [2] | glycodrosocin (GD)
